Values belong to the compound of their own block, whether it stands above or below them. Where no end group is shown, it is not given here.
What was measured:
B16F10 cells = experiment: wound healing assay (cell migration); type: cell-based, mouse; conditions: siRNA, 48 h post-transfection, measured over 6 h; sicontrol 167±13; Mean+/−SEM
Protocol: Transient transfections were performed on a 50% confluent monolayer of B16F10 cells with either 10 nM of siRNA or 5 μg of shRNA against luciferase used as a control or shRNA against GRASP55 in Lipofectamine RNAimax (Invitrogen). Transfection efficiency was monitored at 24 h by qRT-PCR and Western blots for the expression of GRASP55 transcript or protein. For selection of stable transfectants, cells were grown in DMEM containing 10 μg/ml of puromycine (Sigma Aldrich) starting 48 h after transfection.
For in vitro wound healing assays, 80% confluent monolayers of wild-type B16F10 cells or B16F10 cells transfected with various siRNA or shRNA were grown in both chambers of Ibidi culture inserts with defined cell free gaps. Cells were subjected to serum starvation for 24 h, before wounds were created by removing Ibidi culture inserts that define cell gaps of 400 μm. The wound healing was carried out for 8 h in complete DMEM medium and was recorded at various times after wounding. Analysis of wound closure was performed using Metamorph software and is expressed as mean speed per minute.

JAM-C = biological target: T1, JAM-C (Mus musculus, UniProt Q9D8B7); experiment: yeast two hybrid interaction of Grasp55 constructs with JAM-C; type: binding, murine; set-up: key: Symbols “+++” and “−” indicates the growth of yeast on selective media as shown in the FIGURE 13; Symbols “+++” and “−” indicates the growth of yeast on selective media as shown in the FIGURE 13
T1 construct: amino-acids 263 to 310 of murine JAM-C; expressed in transfected cells; host or cells: AH109 yeast strain
T1 sequence (Q9D8B7 263-310): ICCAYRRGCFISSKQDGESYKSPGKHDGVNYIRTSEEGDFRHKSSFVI
From the text: (§1) The different GRASP55 constructs were cloned into pGBT9 GW vector (Ga14 DNA-binding domain fusion vector, Trp) as well in the pACT2 GW vector (Gal4 DNA-activation domain fusion vector, Leu) using the Gateway technology (Invitrogen). Plasmids were then co-transformed in AH109 yeast strain (/MATa, trp1-901, leu2-3, 112, ura3-52, his3-200, gal4/A, /gal80/A, /LYS2::GAL1//UAS//-GAL1//TATA//-HIS3, GAL2//UAS//-GAL2//TATA//-ADE2, URA3::MEL1//UAS//-MEL1//TATA//-lacZ, MEL1/) in accordance with the previously described transformation protocol (Chien et al. 1991. Proc Natl Acad Sci USA. 88:9578-82). Following co-transformation with the two vectors containing the different constructs (as well as the empty vector to test self activation), yeasts were plated onto Synthetic Complete (SC) medium minus Leucine (−L), minus Tryptophan (−W), minus Histidine (−H) and incubated at 30° C. for 4 to 5 days. All yeast media were prepared as previously described.
(§2) In examples 2, the inventors have previously shown that interaction between Grasp55 and C-terminal part of JAM-C requires the peptidic sequence between residues 1 to 160 of Grasp55 (PDZI+II) but cannot occur with residues 1 to 79 of Grasp55 (PDZI) by yeast two hybrid and ELISA assay (FIGS. 2 and 8). In the present example, the interaction sites between JAMs or metalloproteinases involved in JAM regulation and Grasp55 have been mapped using new constructs. To this end, yeast two-hybrid and GST fusion proteins encompassing residues 1 to 107, 108 to 208, and 1 to 208 corresponding respectively to the PDZI′, PDZII′ and PDZI′+II′ constructs have been generated. The former PDZII construct (residues 80 to 160) have also been used to test interaction with the C-terminal sequences of ADAM 10 (of sequence SEQ ID NO: 41) and ADAM 17 (of sequence SEQ ID NO: 42) known to regulate JAM-A and JAM-C release (Table 1). GST fusion proteins were produced and yeast two-hybrid assay was performed as previously described in example 1.

JAM-C ΔPDZbm = biological target: T2, JAM-C ΔPDZbm (Mus musculus, UniProt Q9D8B7); experiment: yeast two hybrid interaction of Grasp55 constructs with JAM-C ΔPDZbm; type: binding, murine; set-up: key: Symbols “+++” and “−” indicates the growth of yeast on selective media as shown in the FIGURE 13; Symbols “+++” and “−” indicates the growth of yeast on selective media as shown in the FIGURE 13
T2 construct: amino-acids 263 to 310 of murine JAM-C; expressed in transfected cells; host or cells: AH109 yeast strain
T2 sequence (Q9D8B7 263-307 limits assumed): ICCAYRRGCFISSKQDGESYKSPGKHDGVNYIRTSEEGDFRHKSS
From the text: as §1, §2

ADAM10 = biological target: T3, ADAM10 (Mus musculus, UniProt O35598, DEL741-741); experiment: yeast two hybrid interaction of Grasp55 constructs with ADAM10 C-terminal sequence; type: binding, murine; set-up: key: Symbols “+++” and “−” indicates the growth of yeast on selective media as shown in the FIGURE 13; Symbols “+++” and “−” indicates the growth of yeast on selective media as shown in the FIGURE 13
T3 construct: expressed in transfected cells; host or cells: AH109 yeast strain
T3 sequence (O35598 with tags, fused parts or gaps DEL741-741): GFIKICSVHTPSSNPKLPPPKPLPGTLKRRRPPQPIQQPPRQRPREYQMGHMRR
From the text: as §1, §2

ADAM17 = biological target: T4, ADAM17 (Mus musculus, UniProt Q9Z0F8, A775V/P752S); experiment: yeast two hybrid interaction of Grasp55 constructs with ADAM17 C-terminal sequence; type: binding, murine; set-up: key: Symbols “+++” and “−” indicates the growth of yeast on selective media as shown in the FIGURE 13; Symbols “+++” and “−” indicates the growth of yeast on selective media as shown in the FIGURE 13
T4 construct: expressed in transfected cells; host or cells: AH109 yeast strain
From the text: as §1, §2

[1] = biological target: T5, GST-PDZI′+II′ (Grasp55 residues 1 to 208) (Mus musculus, UniProt Q99JX3); experiment: HTRF measurement of interaction of biotinylated C-terminal peptides with GST-PDZI′+II′; type: binding, murine; conditions: for interaction of biotinylated peptide with PDZI′+II′ GST construct: peptide 1.9*10^−7M
T5 construct: and 1 to 208 corresponding respectively to the PDZI′, PDZII′ and PDZI′+II′ constructs; made in house; host or cells: bacteria Rosetta
Protocol: (§3) To refine and extend the results obtained by yeast two hybrid, an Homogenous Time Resolved Fluorescence (HTRF) assay have been set-up to measure interactions of various peptides with recombinant GST proteins corresponding to different regions of Grasp55.
(§4) Briefly, the technique consisted in incubating 18 h at 4° C. the biotinylated-Cterminal peptides (SEQ ID NO: 26 to 34) at the concentration of 1.9*10^−7M with the GST-fusion protein, the terbium-coupled anti-GST antibody (8*10^−10M each) and the d2-coupled streptavidin (4*10^−8M) (both from Cisbio), in 0.1 mL of Hepes 0.05M, NaCl 0.15M BSA 0.1% pH 7.2. In some experiments, competing peptide or chemicals were added to the incubation mix at the indicated concentration. After incubation, microtiter plates (Costar #3693) were red using PolarScan Omega (BMG Labtech) equipped for HTRF measurements. Upon excitation at 320 nm, a 620 nm fluorescence emission is produced by the donor terbium that in turn excites a 665 nm light emission by a Streptavidin-d2 (acceptor) bound to the Biotinylated interacting Peptide if the latter is interacting with the donor. The […] R ratio is obtained and a Delta F is computed as: [(Rsample−RNSB)/RNSB]*100 where RNSB is the Non Specific Background signal determined in incubates where the GST-fusion protein was omitted.
(§5) Having shown that HTRF measurement of interaction is a reliable technology to identify inhibitors of interaction. A screen of a chemical compound library provided by MRCt has been initiated. The screening consisted in the same HTRF technique used in Example 7 except that compounds from the library were added in the incubation mix at the final concentration of 6.6×10^−5M. […] Since such a result could be either due to a specific inhibition of the JAM-C peptide interaction to the recombinant Grasp55 PDZ domains or to a non-specific inhibition of the FRET signal between donor and acceptor in HTRF technology, the twenty selected compounds have been further tested. Indeed, compounds could potentially interfere with the binding of the anti-GST antibody terbium-labeled to the GST of the fusion protein, the binding of Streptavidin-d2 to the biotinylated peptide or promote strong interference at 320, […] or 665 nm. Thus, the putative hits obtained were screened for non-specific inhibition. To this end, the GST-PDZI′+II′ recombinant protein was biotinylated using Sulfo-NHS Biotin according to manufacturer instructions (Pierce). This allows designing an HTRF assay in which the d2-coupled streptavidin (acceptor) and the terbium-coupled anti-GST antibody are directly bound to recombinant GST-PDZI′+II′ protein and produce DeltaF signal independently of the biotinylated peptide. The twenty selected compounds were thus tested in this assay to eliminate those giving false inhibition of the HTRF signals while inhibitors of Biotinylated peptide interaction with GST-PDZI′+II′ should not interfere in this assay.

[2] = biological target: T6, GST-PDZI′ (Grasp55 residues 1 to 107) (Mus musculus, UniProt Q99JX3); experiment: HTRF measurement of interaction of biotinylated C-terminal peptides with GST-PDZI′; type: binding, murine; conditions: for which Grasp55 construct's interaction with JAM-C is inhibited: NINDS library screening, PDZI′ and PDZI′+II′ recombinant GST proteins; for interaction of biotinylated peptide with PDZI′ GST construct: peptide 1.9*10^−7M
T6 construct: GST fusion proteins encompassing residues 1 to 107; made in house; host or cells: bacteria Rosetta
Protocol: as §3, §4, §5

[3] = competition with unlabelled JAM-C peptide

T4 sequence (Q9Z0F8 693-827 P752S/A775V): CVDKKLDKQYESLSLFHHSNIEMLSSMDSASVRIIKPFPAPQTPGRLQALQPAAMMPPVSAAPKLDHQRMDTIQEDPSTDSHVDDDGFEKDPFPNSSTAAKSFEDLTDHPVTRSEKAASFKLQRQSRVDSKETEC

Compound: siGRASP55#01: siRNA targeting Grasp55, SEQ ID NO: 6, 5′CGUCAUGAAUGAGUCUGAATT 3′, from Ambion (chemistry not given here)
mean velocity (B16F10 cells): 82 ± 4 nm/min

interaction with JAM-C (yeast growth on selective media) (JAM-C): +++
interaction with JAM-C ΔPDZbm (yeast growth on selective media) (JAM-C ΔPDZbm): −
interaction with ADAM10 (yeast growth on selective media) (ADAM10): −
interaction with ADAM17 (yeast growth on selective media) (ADAM17): −
Compound: PDZI′ + II′: Grasp55 construct, residues 1 to 208

interaction of biotinylated peptide with PDZI′+II′ GST construct [1]: no signal over the background
Compound: ΔPDZbm: control biotynilated JAM-C peptide lacking the three terminal amino-acids (SEQ ID NO: 31) (NYIRTSEEGDFRHKSS; also: biotinylated)

Compound: siGRASP55#1: siRNA targeting Grasp55, SEQ ID NO: 7, 5′AAGUGAUCAUCACACCAAATT 3′, from Ambion (chemistry not given here)
mean velocity (B16F10 cells): 95 ± 8 nm/min

Compound: O=c1oc2c(O)c(O)cc3c(=O)oc4c(O)c(O)cc1c4c23 [Ellagic acid, 2,3,7,8-Tetrahydroxy-chromeno[5,4,3-cde]chromene-5,10-dione]
which Grasp55 construct's interaction with JAM-C is inhibited [2]: inhibit interaction with PDZI′ and PDZI′+II′

which Grasp55 construct's interaction with JAM-C is inhibited [2]: only with PDZI′+II′
Compound: CCN(CC)C(=S)SSC(=S)N(CC)CC [Disulfiram, 1,1′,1″,1′″-[disulfanediylbis(carbonothioylnitrilo)]tetraethane]

interaction of biotinylated peptide with PDZI′ GST construct [2]: confirmed
AppAff for GST-PDZI′+II′ compared with GST-PDZI′ [1, 3]: higher AppAff
interaction of biotinylated peptide with PDZI′+II′ GST construct [1]: confirmed
Compound: JAM-C: biotinylated C-terminal peptide of JAM-C (NYIRTSEEGDFRHKSSFVI; also: biotin)

interaction with JAM-C (yeast growth on selective media) (JAM-C): −
interaction with JAM-C ΔPDZbm (yeast growth on selective media) (JAM-C ΔPDZbm): −
interaction with ADAM10 (yeast growth on selective media) (ADAM10): −
interaction with ADAM17 (yeast growth on selective media) (ADAM17): −
Compound: PDZII′: Grasp55 construct, residues 108 to 208

interaction of biotinylated peptide with PDZI′ GST construct [2]: confirmed
AppAff for GST-PDZI′+II′ compared with GST-PDZI′ [1, 3]: higher AppAff
interaction of biotinylated peptide with PDZI′+II′ GST construct [1]: confirmed
Compound: JAM-A: biotinylated C-terminal peptide of JAM-A (SQPSTRSEGEFKQTSSFLV; also: biotinylated)
apparent affinity (AppAff) compared with JAM-C ([1]; competition with unlabelled JAM-C peptide, GST-PDZI′ and GST-PDZI′+II′): AppAff of JAM-C is equal to AppAff of JAM-A

interaction with JAM-C (yeast growth on selective media) (JAM-C): +++
interaction with JAM-C ΔPDZbm (yeast growth on selective media) (JAM-C ΔPDZbm): −
interaction with ADAM10 (yeast growth on selective media) (ADAM10): −
interaction with ADAM17 (yeast growth on selective media) (ADAM17): −
Compound: PDZI′: Grasp55 construct, residues 1 to 107

Compound: N.N.O=C([O-])C1(C(=O)[O-])CCC1.[Pt+2] [Carboplatin, cis-Diammine(1,1-cyclobutanedicarboxylato)platinum(II)]
which Grasp55 construct's interaction with JAM-C is inhibited [2]: preferentially inhibit the interaction of JAM-C with PDZI′
